Source: US6613878 (CYCLACEL, dated 2003)
Ends that are not written are not given here. * marks the point of attachment. Biotin = O=C1N[C@H]2[C@H](CS[C@H]2CCCCC(=O)*)N1

Tests used:
[1] = biological target: T1, human PCNA (proliferating cell nuclear antigen) (human, UniProt P12004 1-261); assay: precipitation assay
T1 construct: also called recombinant human PCNA
Experimental: (§1) Twenty amino acid peptides with 15 amino acid overlaps were synthesized (Chiron Mimotopes, Australia) across the 89 amino acids from the C-terminal region of Fen1 identified in the two hybrid screen as the PCNA binding site on Fen1. These peptides were linked via residues SGSG (SEQ ID NO:3) at the amino acid terminus to biotin. 2.7 µg of each peptide was incubated with 10 µl streptavidin agarose beads (Sigma) in phosphate buffered saline (PBS) for 1 hour at room temperature (r.t.) then beads were washed extensively in PBS and recovered each time by centrifugation at 11,600 g. HeLa cell lysate was added to the washed beads to a final protein concentration of 1 mg/ml and incubated with the beads on ice for 1 hour. Beads were extensively washed in PBS with 220 mM NaCl, then bound proteins removed by boiling for 8 minutes in SDS loading buffer with 0.2 M DTT. Proteins were separated on 10% SDS-PAGE then electrophoretically transferred to nitrocellulose. Blots were blocked then incubated for 1 hour r.t. with PC 10 hybridoma supernatant (Waseem & Lane, 1990) diluted 1:5 in DMEM with 10% FCS. After washing, secondary HRP-conjugated anti-mouse IgG serum at 1:1000 in 2% non-fat milk-PBS-0.2% Tween was added for 1 hour at r.t. Bound antibody was visualised using the ECL system according to the manufacturer's instructions (Amersham plc.)
To map precisely the residues of Fen1 to which PCNA binds, a series of biotinylated 20 amino acids peptides (with 15 amino acid overlaps) were synthesized representing the region of Fen1 found to interact with PCNA in the two hybrid screen (FIG. 1). Fen1 peptides (bound to streptavidin agarose beads) were incubated with human HeLa cell extracts, then beads were precipitated and bound protein analysed on immunoblots probed with monoclonal anti-PCNA antibody PC10 (Waseen & Lane, 1990).

[2] = biological target: T2, human Fen1 fused to the transcriptional activation domain of Gal4 (Gal4ACT) (human, UniProt P39748 1-380); assay: yeast two hybrid
T2 construct: range 1-380; Yeast two hybrid prey; also called DNase IV; rad2hs
T2 sequence (P39748 whole entry, the tested form may be a part): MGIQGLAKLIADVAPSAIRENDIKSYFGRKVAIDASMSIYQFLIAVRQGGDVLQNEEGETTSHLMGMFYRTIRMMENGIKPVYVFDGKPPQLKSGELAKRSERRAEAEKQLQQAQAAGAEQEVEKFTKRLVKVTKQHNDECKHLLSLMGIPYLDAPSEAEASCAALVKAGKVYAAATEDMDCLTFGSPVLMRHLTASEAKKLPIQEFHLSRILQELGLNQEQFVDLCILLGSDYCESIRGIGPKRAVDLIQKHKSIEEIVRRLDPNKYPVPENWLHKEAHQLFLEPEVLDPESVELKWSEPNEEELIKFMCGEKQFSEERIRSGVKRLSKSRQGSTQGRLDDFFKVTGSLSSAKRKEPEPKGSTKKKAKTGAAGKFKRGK
Excerpt: The 89 Amino Acids From the C-terminal Region of Fen1 Bind PCNA in an Interaction Trap Proteins that interact physically with human PCNA were screened using a two hybrid interaction trap system that detects protein-protein interactions by reconstitution of a functional Gal4 transcriptional activator in the yeast *Saccharomyces cerevisiae*. A plasmid expressing human PCNA in fusion with the DNA binding domain of Gal4 (Gal4AS) was used to screen plasmids expressing fusion constructs of molecules encoded by fragments from a human cDNA library with the transcriptional activation domain of Gal4 (Gal4ACT). […] The minimal Fen1 fragment isolated in our screen (FIG. 1) encoded the 89 amino acids from the C-terminal region of the protein (full length 380 aa, (Murray et al., 1994)), therefore localising the PCNA binding site to these residues.

[3] = biological target: T1, human PCNA (proliferating cell nuclear …); assay: peptide on streptavidin agarose beads, precipitation from HeLa extract, PC10 immunoblot
Experimental: as §1, with “These” for “Twenty amino acid peptides with 15 amino acid overlaps were synthesized (Chiron Mimotopes, Australia) across the 89 amino acids from the C-terminal region of Fen1 identified in the two hybrid screen as the PCNA binding site on Fen1. These”
The region of human Fen1 recognised by PCNA in the precipitation assay contains a motif highly conserved in the Fen1 family. We examined whether human PCNA could bind to his motif in the yeast homologues of Fen1, *S. pombe* rad2 and *S. pombe* RAD27/YKL510. […]

T1 sequence (P12004 whole entry): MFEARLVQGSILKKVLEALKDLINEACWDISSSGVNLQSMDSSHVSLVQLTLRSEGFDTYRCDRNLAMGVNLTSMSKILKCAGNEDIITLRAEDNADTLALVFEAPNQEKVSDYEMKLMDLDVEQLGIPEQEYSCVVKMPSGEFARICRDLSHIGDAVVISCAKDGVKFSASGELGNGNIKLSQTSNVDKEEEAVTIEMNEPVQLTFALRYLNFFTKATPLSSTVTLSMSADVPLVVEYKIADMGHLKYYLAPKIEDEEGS

binding result [1] | Binder | further results
binds | Biotin-SGSGSRQGSTQGRLDDFFKVTGSL [Fen1 peptide 85] | 
binds | ASKTIPQGRLDSFFKPVPSS (not fully specified (N-terminus); also: biotinylated, position not given here, also called rad2 peptide) [peptide 92, 20 amino acid peptide of the conserved box of S. pombe rad2] | 

The remaining lines, values behind:

Binder | binding result [1] | further results
Biotin-SGSGTQGRLDDFFKVTGSLSSAKR [Fen1 peptide 86] | binds | 
PCNA from Schizosaccharomyces pombe (other, UniProt Q03392 1-260, looked up, Two hybrid construct; the Gal4 fusion is not described for this protein; also called S. pombe PCNA; pcn1 product) MLEARFQQAALLKKLLDAIKELVTDANFDCNDNGISLQAMDSSHVALVSMLIKSDGFEPYRCDRNIALGINLNALSKVLRCAQNEDLVTLKAEDTPEVLNLVFESEKNDRISDYDVKLMDIDQEHLGIPDIEYDATITMPAAEFQRITRDLLTLSDSVTINASKEGVRFSCKGDIGNGSTTLKQHTDLSDQDQSIEISLTQAVTLTFSLKYLAQFTKATPLATRVTLSMSNDVPLLVEYKMESGFLRFYLAPKIGEEDEE |  | binding result [2]: binds
Biotin-SGSGKRLSKSRQGSTQGRLDDFFK (also called FenPBP) [Fen1 peptide 84 (Fen1PBP, Fen1-PCNA binding peptide)] | binds | 
PCNA from Drosophila melanogaster (other, UniProt P17917 1-260, looked up, Two hybrid construct; the Gal4 fusion is not described for this protein; also called D. melanogaster PCNA) MFEARLGQATILKKILDAIKDLLNEATFDCSDSGIQLQAMDNSHVSLVSLTLRSDGFDKFRCDRNLSMGMNLGSMAKILKCANNEDNVTMKAQDNADTVTIMFESANQEKVSDYEMKLMNLDQEHLGIPETDFSCVVRMPAMEFARICRDLAQFSESVVICCTKEGVKFSASGDVGTANIKLAQTGSVDKEEEAVIIEMQEPVTLTFACRYLNAFTKATPLSTQVQLSMCADVPLVVEYAIKDLGHIRYYLAPKIEDNET |  | binding result [2]: binds
GLKSGIQGRLDGFFQVVPKT (not fully specified (N-terminus); also: biotinylated, position not given here, also called RAD27 peptide) [peptide 93, 20 amino acid peptide of the conserved box of S. cerevisiae RAD27/YKL510] |  | binding result [3]: binds
